Measured values published in patent US20260092096A1 (35PHARMA, published 2026).
Blank lines part the entries; values can stand above or below the molecule they belong to.

Assays:
Experiment in all cases: cell-based or functional assay
[1] = molecular target: T1, activin A (human, UniProt P08476 311-426)
T1 sequence (looked up): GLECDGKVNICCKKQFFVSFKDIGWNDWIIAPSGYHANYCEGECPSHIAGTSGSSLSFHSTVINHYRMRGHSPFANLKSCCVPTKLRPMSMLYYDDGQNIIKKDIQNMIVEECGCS

[2] = molecular target: T2, activin B (UniProt P09529 293-407)
T2 sequence (looked up): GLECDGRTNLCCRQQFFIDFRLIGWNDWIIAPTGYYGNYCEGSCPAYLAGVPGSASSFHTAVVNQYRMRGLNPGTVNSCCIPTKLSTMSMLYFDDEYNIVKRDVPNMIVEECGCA

[3] = molecular target: T3, GDF-8 (UniProt O14793 267-375)
T3 sequence (looked up): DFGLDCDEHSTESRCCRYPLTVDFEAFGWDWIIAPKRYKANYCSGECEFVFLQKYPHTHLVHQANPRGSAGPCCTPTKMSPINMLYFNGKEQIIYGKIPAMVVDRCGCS

[4] = molecular target: T4, GDF-11 (UniProt O95390 299-407)
T4 sequence (looked up): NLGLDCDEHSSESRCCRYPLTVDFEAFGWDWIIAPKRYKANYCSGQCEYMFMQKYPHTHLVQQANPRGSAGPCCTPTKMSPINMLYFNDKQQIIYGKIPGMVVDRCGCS

[5] = molecular target: T5, BMP-9 (UniProt Q9UK05 320-429)
T5 sequence (looked up): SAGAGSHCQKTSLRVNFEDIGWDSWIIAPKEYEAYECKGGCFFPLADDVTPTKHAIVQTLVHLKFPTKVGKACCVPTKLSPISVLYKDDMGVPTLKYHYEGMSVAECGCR

[6] = molecular target: T6, BMP-10 (UniProt O95393 317-424)
T6 sequence (looked up): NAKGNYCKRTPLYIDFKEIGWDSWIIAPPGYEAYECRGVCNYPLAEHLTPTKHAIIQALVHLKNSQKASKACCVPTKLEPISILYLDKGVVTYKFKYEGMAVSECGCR

Molecule: P753 (hActRIIB T69H, 14 aa linker, IgG1-DL) (Fc fusion)
- IC50, TGFβ-reporter HEK293 cell-based neutralization assay [1]: 1.6 nM
- fold increase in neutralization potency relative to P75 [1]: 1.5 fold
- IC50, TGFβ-reporter HEK293 cell-based neutralization assay [2]: 2.4 nM
- IC50, TGFβ-reporter HEK293 cell-based neutralization assay [3]: 1.4 nM
- IC50, TGFβ-reporter HEK293 cell-based neutralization assay [4]: 1.5 nM
- IC50, BMP-reporter HepG2 cell-based neutralization assay [5]: 2.1 nM
- IC50, BMP-reporter HepG2 cell-based neutralization assay [6]: 2.9 nM

B1: P1372 (hActRIIB L33W, 14 aa linker, IgG1 YTE-DL) (Fc fusion)
chain: ETRECIYYNANWELERTNQSGLERCEGEQDKRWHCYASWRNSSGTIELVKKGCWLDDFNCYDRQECVATEENPQVYFCCCEGNFCNERFTHLPEAGGPEVTYEPPPTGGGGSGGGGSGGGGTHTCPPCPAPELLGGPSVFLFPPKPKDTLYITREPEVTCVVVDVSHEDPEVKFNWYVDGVEVHNAKTKPREEQYNSTYRVVSVLTVLHQDWLNGKEYKCKVSNKALPAPIEKTISKAKGQPREPQVYTLPPSRDELTKNQVSLTCLVKGFYPSDIAVEWESNGQPENNYKTTPPVLDSDGSFFLYSKLTVDKSRWQQGNVFSCSVMHEALHNHYTQKSLSLSPG
- IC50, TGFβ-reporter HEK293 cell-based neutralization assay [1]: 0.56 nM
- IC50, TGFβ-reporter HEK293 cell-based neutralization assay [2]: 2 nM
- IC50, TGFβ-reporter HEK293 cell-based neutralization assay [3]: 0.18 nM
- IC50, TGFβ-reporter HEK293 cell-based neutralization assay [4]: 0.53 nM
- IC50, BMP-reporter HepG2 cell-based neutralization assay [5]: > 1000 nM
- IC50, BMP-reporter HepG2 cell-based neutralization assay [6]: > 100 nM

Next, values leading:

- IC50, TGFβ-reporter HEK293 cell-based neutralization assay [1]: 1.5 nM
- IC50, TGFβ-reporter HEK293 cell-based neutralization assay [2]: 2.1 nM
- IC50, TGFβ-reporter HEK293 cell-based neutralization assay [4]: 1.6 nM
- IC50, BMP-reporter HepG2 cell-based neutralization assay [5]: 3.5 nM
- IC50, BMP-reporter HepG2 cell-based neutralization assay [6]: 2.5 nM
Molecule: P754 (hActRIIB T69Q, 14 aa linker, IgG1-DL) (Fc fusion)

- IC50, TGFβ-reporter HEK293 cell-based neutralization assay [1]: 3.5 nM
- IC50, TGFβ-reporter HEK293 cell-based neutralization assay [2]: 6 nM
- IC50, TGFβ-reporter HEK293 cell-based neutralization assay [3]: 2 nM
- IC50, TGFβ-reporter HEK293 cell-based neutralization assay [4]: 2.1 nM
- IC50, BMP-reporter HepG2 cell-based neutralization assay [5]: 1.1 nM
- fold increase in neutralization potency relative to P75 [5]: 2 fold
- IC50, BMP-reporter HepG2 cell-based neutralization assay [6]: 4 nM
Molecule: P739 (hActRIIB G27E, 14 aa linker, IgG1-DL) (Fc fusion)

- IC50, TGFβ-reporter HEK293 cell-based neutralization assay [1]: 0.53 nM
- IC50, TGFβ-reporter HEK293 cell-based neutralization assay [2]: 2 nM
- IC50, TGFβ-reporter HEK293 cell-based neutralization assay [3]: 0.33 nM
- IC50, TGFβ-reporter HEK293 cell-based neutralization assay [4]: 0.39 nM
- IC50, BMP-reporter HepG2 cell-based neutralization assay [5]: > 1000 nM
- IC50, BMP-reporter HepG2 cell-based neutralization assay [6]: > 100 nM
B2: P1375 (hActRIIB L33W, 19 aa linker, IgG1 YTE-DL) (Fc fusion)
chain: ETRECIYYNANWELERTNQSGLERCEGEQDKRWHCYASWRNSSGTIELVKKGCWLDDFNCYDRQECVATEENPQVYFCCCEGNFCNERFTHLPEAGGPEVTYEPPPTGGGGSGGGGSGGGGSGGGGTHTCPPCPAPELLGGPSVFLFPPKPKDTLYITREPEVTCVVVDVSHEDPEVKFNWYVDGVEVHNAKTKPREEQYNSTYRVVSVLTVLHQDWLNGKEYKCKVSNKALPAPIEKTISKAKGQPREPQVYTLPPSRDELTKNQVSLTCLVKGFYPSDIAVEWESNGQPENNYKTTPPVLDSDGSFFLYSKLTVDKSRWQQGNVFSCSVMHEALHNHYTQKSLSLSPG
